Results published in publication doi:10.1101/2021.07.28.454260.

Target: HupA fused to a split luciferase fragment (positive control of the assay)
Assay: split reporter

“HupA fused to a split luciferase fragment (positive control of the assay) (natural protein)” showed an increase in luminescence signal after 1 hour of induction greater than 2.
